Here are results for 58 substances from the supplement of paper PMC12042874.

The nature of this series: amyloid nucleation score (Sup35N fusion, yeast selection) (log enrichment); library NNK1; higher = more nucleation; inactive = no reads after selection. In a few lines: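 The nucleation score is the DiMSum log enrichment of output over input reads, centred on the mode score of non-aggregating sequences. Only sequences with 100 or more input reads were scored, using Illumina sequencing of input and output plasmid inserts. Psi-negative yeast expressing Sup35N fused to peptides of 20 random codons were induced 24 hours with 100 μM copper sulfate and grown 7 days at 30°C on medium lacking adenine and uracil.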

± gives the uncertainty stated by the source.

As for DVTLVNFIG, the amyloid nucleation score came out at 0.285 ± 0.48.

LFFHSKYMQRLKL showed an amyloid nucleation score of 0.183 ± 0.72.

NCYMT had an amyloid nucleation score of 0.386 ± 0.31.

For the substance KAVYVVNGLFVHCVTR, the amyloid nucleation score came out at 0.267 ± 0.21.

Substance TNSPKKGMNGYGFNATVWTS had an amyloid nucleation score of 0.413 ± 0.9.

On to MEKYYGQLLKDY, for which the amyloid nucleation score was 0.224 ± 0.29.

The substance ICQTFASCEFDGCLLH came in with an amyloid nucleation score of 3.47 ± 0.12.

PFGLRYQLRIRHYTMIEELS showed an amyloid nucleation score of 1.88 ± 0.29.

With CLCLKVFLQKVVRGCNR, the amyloid nucleation score was 1.01 ± 0.29.

Substance CFNVYWLFAIGGYGMRLRSD came in with an amyloid nucleation score of -1.04 ± 1.1.

VTTYLG showed an amyloid nucleation score of -0.499 ± 0.74.

Regarding FCLIFDGC, the amyloid nucleation score result is “inactive”.

YTSKSMRGFSKKSLFDMTFK: the amyloid nucleation score is 0.126 ± 0.79.

Consider IRSYHLVFVGM, for which the amyloid nucleation score was 5.13 ± 0.1.

For PKDLIVTTLHAWCDRHSYT, the amyloid nucleation score is -0.49 ± 0.76.

YTTDREFLPICKDAATRDFL yielded an amyloid nucleation score of -0.057 ± 1.1.

DNLLEAASNNIIEYVCSPLE: the amyloid nucleation score turned out to be 0.501 ± 0.44.

Substance INGPCLLTYLPLAEVGCCLV displayed an amyloid nucleation score of 0.25 ± 0.55.

As for SDALPVYVEFREGGKSRGWT, the amyloid nucleation score was -0.916 ± 1.1.

In turn, HQVVRSFGELHLLWCRLDEG came in with an amyloid nucleation score of 0.204 ± 0.45.

The substance NLTDTKLRDNGKNPALADQV gave an amyloid nucleation score of -0.226 ± 0.26.

The substance RTPVLSCWWFEYMELRGQST returned an amyloid nucleation score of -0.412 ± 1.7.

In turn, DILEIWL registered an amyloid nucleation score of -0.481 ± 0.4.

Substance NRNTRLMWNDTVWGIRAARY came in with an amyloid nucleation score of -0.279 ± 0.85.

For the substance FNLSLLRSSCAVH, the amyloid nucleation score was 1.04 ± 0.62.

Turning to FRPMEWLTFCSVRGLLLTIP, the amyloid nucleation score result is “inactive”.

On to NFRGLRLSKIYLLHHAGNLW, for which the amyloid nucleation score stood at 0.533 ± 0.47.

SALYNAGCKLCLFTS returned an amyloid nucleation score of 0.004 ± 1.1.

Take NWTVFLATNGF: the amyloid nucleation score was -0.095 ± 0.85.

Turning to DLKVNCVGEWADRLFMFSFG, the amyloid nucleation score was 0.683 ± 0.84.

The substance VQAAGYITLATVALWSTSMQ had an amyloid nucleation score of 2.02 ± 0.31.

The substance VYLFSVLVDVSRMSNGMLTR came in with an amyloid nucleation score of -0.211 ± 1.2.

With MGGRSPMELAISRVVVVVKW, the amyloid nucleation score result is “inactive”.

The substance NCLRNWHKFI showed an amyloid nucleation score of -0.845 ± 0.7.

In the case of GSNDPSVLTAVVLMLLKHRG, the amyloid nucleation score was 2.04 ± 0.35.

In the case of TKMVWASALWAHSPVMY, the amyloid nucleation score was determined as 0.724 ± 1.2.

Consider YMLSDLITCLCVAEELFRGQ, for which the amyloid nucleation score came to 4.81 ± 0.098.

In turn, GLVLTIWHLRTAEERIVYRA had an amyloid nucleation score of 1.58 ± 0.26.

Substance SLDRYIREHK yielded an amyloid nucleation score of 0.635 ± 0.84.

In the case of DIRLIPCMSMVC, the amyloid nucleation score is -1.38 ± 1.1.

Turning to KLFSK, the amyloid nucleation score result was “inactive”.

In turn, WFVNWWEYVL returned an amyloid nucleation score of 0.042 ± 0.9.

Substance ISWVPDAVNFFACMHW registered an amyloid nucleation score of 0.094 ± 0.51.

The substance SIRLYETHSLT came in with an amyloid nucleation score of 0.885 ± 0.14.

For RSCLQGFGIFAMAIMD, the amyloid nucleation score was determined as 0.367 ± 0.79.

GVKFNSDMSCQFRRVLVEIA showed an amyloid nucleation score of -0.057 ± 1.7.

As to DPYTHYVAMRINCYWEMCAL, the amyloid nucleation score was -1.06 ± 0.93.

The substance SAWKDAYFRVDVNEDFVS yielded an amyloid nucleation score of 0.154 ± 0.32.

For the substance TFVVFFCWLGS, the amyloid nucleation score came out at 5.12 ± 0.093.

Substance CDTFYLLVLALTYWEWANLE came in with an amyloid nucleation score of -0.497 ± 0.99.

Substance MSMDWICVTTYKAWSARLER gave an amyloid nucleation score of 0.689 ± 0.26.

For FLACGYMFGFRQSYHRPFRF, the amyloid nucleation score worked out at 3.35 ± 0.095.

Consider EKLNFSNLEGFRGFRLKGSR, for which the amyloid nucleation score was -0.271 ± 1.4.

On to FTFKWMGSPWLWR, for which the amyloid nucleation score was found to be 0.485 ± 1.2.

GGTRDVFEFHNSDTPDAVYQ came in with an amyloid nucleation score of -0.043 ± 0.3.

In the case of DDNGPTYR, the amyloid nucleation score result is “inactive”.

In turn, SDQNWMVPQDGPSPTSYLDD displayed an amyloid nucleation score of -0.102 ± 1.5.

In turn, VILRIIILYCLYHVWISGM displayed an amyloid nucleation score of 0.177 ± 0.34.
